Experimental data reported in patent US20180360972A1 (REGENTS OF THE UNIVERSITY OF MINNESOTA, published 2018).
Blank lines part the entries; values can stand above or below the binder they belong to. Square brackets hold non-standard residues; d marks the D form. d2Nal = N[C@H](Cc1ccc2ccccc2c1)C(=O)O

How the values were obtained:
[1] = molecular target: T1, mMC4R-HaloTag fusion protein (mouse, UniProt P56450 1-332, HaloTag NanoBRET 618 ligand bound to the HaloTag); assay: NanoBRET in transiently transfected cells; basal signal with assay buffer set as 100%
T1 construct: whole, on cells; not shown: HaloTag on the C-terminus

[2] = molecular target: hMC4R PRESTO-Tango plasmid construct, transiently expressed in HTLA cells (human, UniProt P32245 1-332); assay: cell-based or functional assay
[3] = molecular target: human melanocortin-4 receptor (hMC4R), stably expressed in HEK293 cells (human, UniProt P32245 1-332); assay: cell-based or functional assay
Sequence of human melanocortin-4 receptor (hMC4R), stably expressed in HEK293 cells (P32245 whole entry): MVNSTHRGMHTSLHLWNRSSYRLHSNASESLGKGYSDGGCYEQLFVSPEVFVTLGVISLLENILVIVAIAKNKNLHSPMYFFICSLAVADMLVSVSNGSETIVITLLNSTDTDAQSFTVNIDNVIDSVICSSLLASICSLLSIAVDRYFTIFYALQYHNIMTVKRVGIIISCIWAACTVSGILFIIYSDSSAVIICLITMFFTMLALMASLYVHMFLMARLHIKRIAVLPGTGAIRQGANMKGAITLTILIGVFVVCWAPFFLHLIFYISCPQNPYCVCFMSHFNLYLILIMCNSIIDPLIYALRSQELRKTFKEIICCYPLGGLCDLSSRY

Sequence of hMC4R PRESTO-Tango plasmid construct, transiently expressed in HTLA cells (P32245 whole entry): as above

binding result [1]: binds
B1: mMC4R-NanoLuc fusion protein (receptor, mouse, UniProt P56450 1-332, looked up)
chain: MNSTHHHGMYTSLHLWNRSSYGLHGNASESLGKGHPDGGCYEQLFVSPEVFVTLGVISLLENILVIVAIAKNKNLHSPMYFFICSLAVADMLVSVSNGSETIVITLLNSTDTDAQSFTVNIDNVIDSVICSSLLASICSLLSIAVDRYFTIFYALQYHNIMTVRRVGIIISCIWAACTVSGVLFIIYSDSSAVIICLISMFFTMLVLMASLYVHMFLMARLHIKRIAVLPGTGTIRQGTNMKGAITLTILIGVFVVCWAPFFLHLLFYISCPQNPYCVCFMSHFNLYLILIMCNAVIDPLIYALRSQELRKTFKEIICFYPLGGICELSSRY
notes: whole, on cells; not shown: NanoLuc on the C-terminus

β-arrestin recruitment, response at 10 µM relative to the maximal efficacy of NDP-MSH [2]: 30%
B2: CJL-1-80, Ac-His-DNal(2')-Arg-Trp-NH2 (peptide)
peptide: Ac-H[d2Nal]RW-NH2

cAMP signaling (AlphaScreen), EC50 [3]: 1.9 nM
B3: equal mixture of tetrapeptides CJL-1-14+CJL-1-80 (other)
peptide 1: Ac-H[dF]RW-NH2
peptide 2: Ac-H[d2Nal]RW-NH2
modifications: also: 1:1 mixture of two separate peptides
